Test system: T1, fluorescence labeled peptide of the protease-sensitive hinge region of LTBP1, REHGARS
T1 sequence: REHGARS

In the case of MMP13 catalytic domain (Enzo, Inc), the “Km (Michaelis-Menten non-linear fit, digest of fluorescence labeled hinge substrate)” value is reported as “Km=1.628e-016”.
